Source: article PMC10361598
pKd: −log10 of the molar value. Like-named read-outs stand apart in the source and are kept apart here.

Key:
[1] = target: CXCR4^QTY-Fc (not stated | rabbit); test: graphene field-effect transistor array
[2] = target: CXCR4^QTY-Fc (not stated | rabbit); test: graphene field-effect transistor array; remark: listed apart in the source

“recombinant HIV coat glycoprotein gp_(41–120)” showed a pKd [1] of 8.24 and a pKd [2] of 7.72.
